Data: article PMC9091920 (Journal of Pharmaceutical Analysis, 2021)

How the values were obtained:
[1] = biological target: recombinant human interferon α2b (human) (UniProt P01563); experiment: BLI
[2] = biological target: recombinant human interferon α2b (human) (UniProt P01563); experiment: far-Western, overlay or dot blot
[3] = biological target: recombinant human interferon α2b (human) (UniProt P01563); experiment: lateral-flow immunochromatographic strip

B1: nanobody I22 (His-labeled, purified) (VHH)
VHH: QVQLVESGGGLVQPGGSLRLSCVASGFTFDSATMSWHRQAPGREREFVAMTSGGGMINYANSVKGRFTISRDNAKNTVYLQMDSLKPEDTAVYYCHRLGTFHWGQGTQVTVSS
B1 gave a Kd [1] of 2.06 nM, a limit of detection [2] of 31.2 ng and a limit of detection [3] of 1 µg/mL.
